Measured values: the supplement of paper PMC7125110
± gives the standard error. For some of these results: Variants at the floor of the assay were thinned out.

B1: glmS ribozyme (parent)
chain: AUAAAAGCGCCAGAACUACAGAAAUGUAGUUGACGAGGAGGAGGUUUAUCGAAUUUUCGGCGGAUGCCUCCAAA

How the values were obtained:
Details in all cases: with glucosamine-6-phosphate
[1] = variants of: B1; assay: kcat; higher = faster cleavage; RNA array
Procedure, shortened: (§1)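 In situ transcription by E. coli RNA polymerase produced barcoded ribozyme variants on sequenced MiSeq chips, and a hybridised Cy3 probe tracked them at 37 °C. Glucosamine-6-phosphate was flowed in at 40 μM to 10 mM in HEPES/KCl/Mg(OAc)2 buffer. kcat and KM were taken from weighted Michaelis–Menten fits of kobs values from exponential decay fits.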

[2] = variants of: B1; assay: KM; higher = weaker cofactor use; RNA array
Procedure, shortened: as §1

[3] = variants of: B1; assay: self-cleavage kobs at 40 uM GlcN6P; higher = faster cleavage; RNA array
Procedure, shortened: as §1

[4] = variants of: B1; assay: self-cleavage kobs at 160 uM GlcN6P; higher = faster cleavage; RNA array
Procedure, shortened: as §1

[5] = variants of: B1; assay: self-cleavage kobs at 640 uM GlcN6P; higher = faster cleavage; RNA array
Procedure, shortened: as §1

[6] = variants of: B1; assay: self-cleavage kobs at 2500 uM GlcN6P; higher = faster cleavage; RNA array
Procedure, shortened: as §1

[7] = variants of: B1; assay: self-cleavage kobs at 10000 uM GlcN6P; higher = faster cleavage; RNA array
Procedure, shortened: as §1

Row | Variant | kcat [1] | KM [2] | self-cleavage kobs at 40 uM GlcN6P [3] | self-cleavage kobs at 160 uM GlcN6P [4] | self-cleavage kobs at 640 uM GlcN6P [5] | self-cleavage kobs at 2500 uM GlcN6P [6] | self-cleavage kobs at 10000 uM GlcN6P [7]
1 | G29A A39U | 0.0047 ± 0.0016 s⁻¹ | 3440 ± 1600 µM | 0.000107 ± 1.9e-05 s⁻¹ | 0.000177 ± 3.4e-05 s⁻¹ | 0.000731 ± 0.00013 s⁻¹ | 0.00176 ± 0.0003 s⁻¹ | 0.0037 ± 0.00049 s⁻¹
2 | G29A G38C | < 1e-05 s⁻¹ | – | – | – | – | – | < 1e-05 s⁻¹
3 | G29U A42G | 0.00693 ± 0.0016 s⁻¹ | 1770 ± 660 µM | 0.000272 ± 0.00011 s⁻¹ | 0.000486 ± 0.00015 s⁻¹ | 0.00202 ± 0.00037 s⁻¹ | – | 0.00626 ± 0.0011 s⁻¹
4 | G29U C58G | 8.52e-05 ± 7.7e-06 s⁻¹ | 752 ± 370 µM | – | – | 3.31e-05 ± 1.6e-05 s⁻¹ | 8.3e-05 ± 1.9e-05 s⁻¹ | 7.67e-05 ± 9.9e-06 s⁻¹
5 | G29U C58A | 0.000289 ± 9.9e-05 s⁻¹ | – | – | 3.39e-05 ± 1.2e-05 s⁻¹ | 5.13e-05 ± 1e-05 s⁻¹ | 0.000103 ± 1e-05 s⁻¹ | 0.000231 ± 3e-05 s⁻¹
6 | C16U C50A | 2.89e-05 ± 7.6e-06 s⁻¹ | – | – | – | – | 4.91e-05 ± 1.8e-05 s⁻¹ | 2.32e-05 ± 1.1e-05 s⁻¹
7 | U30A A39U | 0.00467 ± 0.0022 s⁻¹ | – | 0.000191 ± 5.4e-05 s⁻¹ | 0.000401 ± 8.1e-05 s⁻¹ | 0.00188 ± 0.00036 s⁻¹ | 0.0022 ± 0.00046 s⁻¹ | 0.00745 ± 0.0016 s⁻¹
8 | G29C C58A | 0.000126 ± 8e-06 s⁻¹ | 1420 ± 280 µM | – | – | 3.49e-05 ± 1.2e-05 s⁻¹ | 8.42e-05 ± 1.4e-05 s⁻¹ | 0.000108 ± 1.5e-05 s⁻¹
9 | G29A A53C | 0.000592 ± 0.0002 s⁻¹ | – | – | 9.67e-05 ± 2.5e-05 s⁻¹ | 0.000185 ± 5.1e-05 s⁻¹ | 0.00047 ± 0.00011 s⁻¹ | –
10 | G26U A48C | 0.000587 ± 6e-05 s⁻¹ | 4480 ± 710 µM | – | – | 7.06e-05 ± 1.4e-05 s⁻¹ | 0.000222 ± 3.5e-05 s⁻¹ | 0.000394 ± 7.4e-05 s⁻¹
11 | G29U U47A | 0.00313 ± 0.00095 s⁻¹ | 1350 ± 650 µM | 9.83e-05 ± 1.2e-05 s⁻¹ | – | 0.000972 ± 0.00015 s⁻¹ | 0.00104 ± 0.00036 s⁻¹ | 0.0033 ± 0.00035 s⁻¹
12 | U30A U55C | 0.0088 ± 0.0027 s⁻¹ | 3470 ± 1500 µM | 0.000194 ± 3.2e-05 s⁻¹ | 0.000315 ± 5.6e-05 s⁻¹ | 0.00129 ± 0.00024 s⁻¹ | 0.00471 ± 0.0012 s⁻¹ | 0.00647 ± 0.00073 s⁻¹
13 | U30C C67G | 1.07e-05 ± 2.3e-06 s⁻¹ | – | < 1e-05 s⁻¹ | – | – | – | –
14 | C16U C67G | 0.000799 ± 5.5e-05 s⁻¹ | 1570 ± 190 µM | 1.87e-05 ± 6.4e-06 s⁻¹ | 7.2e-05 ± 9.4e-06 s⁻¹ | 0.000229 ± 2.2e-05 s⁻¹ | 0.000566 ± 6.2e-05 s⁻¹ | 0.000664 ± 5.4e-05 s⁻¹
15 | C16U C67A | 0.00194 ± 0.0004 s⁻¹ | 360 ± 110 µM | 0.000212 ± 2.2e-05 s⁻¹ | 0.0005 ± 6.7e-05 s⁻¹ | 0.00138 ± 0.00017 s⁻¹ | 0.00166 ± 0.0003 s⁻¹ | –
16 | G29U U49A | < 1e-05 s⁻¹ | – | < 1e-05 s⁻¹ | < 1e-05 s⁻¹ | – | – | < 1e-05 s⁻¹

Row | Variant | kcat [1] | KM [2] | self-cleavage kobs at 40 uM GlcN6P [3] | self-cleavage kobs at 160 uM GlcN6P [4] | self-cleavage kobs at 640 uM GlcN6P [5] | self-cleavage kobs at 2500 uM GlcN6P [6] | self-cleavage kobs at 10000 uM GlcN6P [7]
17 | G29U U49G | 0.000125 ± 2e-05 s⁻¹ | 5270 ± 1900 µM | – | – | – | 3.79e-05 ± 1.7e-05 s⁻¹ | 8.25e-05 ± 1.9e-05 s⁻¹
18 | C16G U65G | 0.00228 ± 0.0011 s⁻¹ | – | – | 6.11e-05 ± 1.6e-05 s⁻¹ | 0.000149 ± 6.2e-05 s⁻¹ | 0.000455 ± 0.00013 s⁻¹ | 0.00143 ± 0.00036 s⁻¹
19 | G29C G32U | 0.000823 ± 0.00021 s⁻¹ | 7540 ± 2900 µM | – | – | – | 0.000226 ± 6.2e-05 s⁻¹ | 0.000448 ± 0.00016 s⁻¹
20 | G29C G32A | 0.00108 ± 0.00019 s⁻¹ | 1960 ± 740 µM | 3.72e-05 ± 1.5e-05 s⁻¹ | – | 0.000251 ± 8.5e-05 s⁻¹ | 0.000762 ± 0.00038 s⁻¹ | 0.0009 ± 0.00015 s⁻¹
21 | U30C C58U C70U | 3.42e-05 ± 1.3e-05 s⁻¹ | – | – | – | 5.85e-05 ± 2.1e-05 s⁻¹ | 3.95e-05 ± 1.9e-05 s⁻¹ | –
22 | G29U C67A | 0.000685 ± 0.00017 s⁻¹ | 812 ± 370 µM | 5.58e-05 ± 7.8e-06 s⁻¹ | 9.85e-05 ± 1.4e-05 s⁻¹ | 0.000276 ± 3.9e-05 s⁻¹ | 0.000437 ± 5.6e-05 s⁻¹ | 0.000787 ± 8.4e-05 s⁻¹
23 | G29C A48U U69G | 6.26e-05 ± 2.1e-05 s⁻¹ | – | – | – | 5.01e-05 ± 2.1e-05 s⁻¹ | 7.04e-05 ± 3e-05 s⁻¹ | –
24 | U30C A39C | 0.000139 ± 1.1e-05 s⁻¹ | 4210 ± 820 µM | – | – | – | 5.33e-05 ± 1e-05 s⁻¹ | 9.75e-05 ± 9.4e-06 s⁻¹
25 | C16U G43A | 8.72e-05 ± 3e-05 s⁻¹ | – | < 1e-05 s⁻¹ | – | – | 2.82e-05 ± 1e-05 s⁻¹ | 6.17e-05 ± 1e-05 s⁻¹
26 | C16U G43U | 4.2e-05 ± 1.9e-07 s⁻¹ | 1250 ± 27 µM | – | – | – | 2.81e-05 ± 1.3e-05 s⁻¹ | 3.73e-05 ± 1e-05 s⁻¹
27 | G29U C50A | < 1e-05 s⁻¹ | – | < 1e-05 s⁻¹ | – | – | – | –
28 | G29U C50U | 1.34e-05 ± 9.1e-07 s⁻¹ | 3520 ± 700 µM | – | < 1e-05 s⁻¹ | – | – | –
29 | C16G U69G | 4.98e-05 ± 9.6e-06 s⁻¹ | – | – | 3.78e-05 ± 1.2e-05 s⁻¹ | 5.32e-05 ± 1.1e-05 s⁻¹ | 5.34e-05 ± 6.2e-06 s⁻¹ | –
30 | C16U U65C | 0.000756 ± 0.00022 s⁻¹ | 2290 ± 1100 µM | – | 8.27e-05 ± 1.8e-05 s⁻¹ | 0.000152 ± 2.2e-05 s⁻¹ | 0.000332 ± 6.8e-05 s⁻¹ | 0.000697 ± 0.00011 s⁻¹
31 | U30A U49G | 0.000169 ± 3.4e-05 s⁻¹ | 3780 ± 1600 µM | – | – | – | 7.22e-05 ± 1.2e-05 s⁻¹ | 0.000119 ± 2.1e-05 s⁻¹
32 | U30C A53U | 0.000197 ± 3.1e-05 s⁻¹ | 1290 ± 540 µM | – | – | 5.5e-05 ± 1e-05 s⁻¹ | 0.000158 ± 1.5e-05 s⁻¹ | 0.000159 ± 1.8e-05 s⁻¹
